This note sets out measurements from article PMC12871931, “The importin‐alpha superfamily engages in ethylene signaling by shuttling ETHYLENE INSENSITIVE 2 from the endoplasmic reticulum to the nucleus” (The Febs Journal, 2025).

Sequences and labels used below:
B1: GB1‐AtEIN2C^1215–1281 (domain or fragment)
chain: KGKCTTAVTLLDLIKDVEMAISCRKGRTGTAAGDVAFPKGKENLASVLKRYKRRLSNKPVGMNQDGP

The experiment concerns the target ΔIBB_IMPα1 (importin α1 lacking the IBB domain), Arabidopsis thaliana, recombinant (Arabidopsis thaliana). Kind of experiment: BLI; Octet K2; biotinylated ΔIBB_IMPα1 or IMPα4 loaded (15 μM, 600 s) on streptavidin biosensors; peptides/protein in solution; 100 mM Tris pH 7.0, 100 mM KCl, 0.01% Tween 20; room temperature; 300 s association, 300 s dissociation; dose response curves, 1:2 heterogeneous ligand model. (Biolayer interferometry detects binding as a change in optical thickness at a sensor tip.)
Take LKRYKRRL [NOP‐1 (EIN2 NLS peptide, EIN2 residues 1262–1269)]: the equilibrium dissociation constant (Kd) – broadly, a measure of binding affinity in units of concentration – was 2.5 µM.

With KDVEMAISCRKGRTGTAAGDVAFPKGKENLASVLKRYKRRL [N41P‐1 (EIN2 residues 1229–1269)], the equilibrium dissociation constant (Kd) was 8.1 µM.

As to B1, the equilibrium dissociation constant (Kd) came out at 8.8 µM.
